Assay results published in patent publication US20210275641A1 (SYNTHEKINE, published 2021).

T1: human high affinity trimeric IL-2 receptor (CD25/CD122/CD132) (human, UniProt P01589 22-272; P14784 27-551; P31785 23-369)
T1 sequence 1: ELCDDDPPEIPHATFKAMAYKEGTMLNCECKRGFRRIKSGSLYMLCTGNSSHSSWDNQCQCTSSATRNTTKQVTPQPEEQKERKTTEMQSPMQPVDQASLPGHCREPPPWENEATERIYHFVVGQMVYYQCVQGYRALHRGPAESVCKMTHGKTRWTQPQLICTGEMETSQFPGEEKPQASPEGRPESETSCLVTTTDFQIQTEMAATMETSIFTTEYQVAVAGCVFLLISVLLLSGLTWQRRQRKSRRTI
T1 sequence 2: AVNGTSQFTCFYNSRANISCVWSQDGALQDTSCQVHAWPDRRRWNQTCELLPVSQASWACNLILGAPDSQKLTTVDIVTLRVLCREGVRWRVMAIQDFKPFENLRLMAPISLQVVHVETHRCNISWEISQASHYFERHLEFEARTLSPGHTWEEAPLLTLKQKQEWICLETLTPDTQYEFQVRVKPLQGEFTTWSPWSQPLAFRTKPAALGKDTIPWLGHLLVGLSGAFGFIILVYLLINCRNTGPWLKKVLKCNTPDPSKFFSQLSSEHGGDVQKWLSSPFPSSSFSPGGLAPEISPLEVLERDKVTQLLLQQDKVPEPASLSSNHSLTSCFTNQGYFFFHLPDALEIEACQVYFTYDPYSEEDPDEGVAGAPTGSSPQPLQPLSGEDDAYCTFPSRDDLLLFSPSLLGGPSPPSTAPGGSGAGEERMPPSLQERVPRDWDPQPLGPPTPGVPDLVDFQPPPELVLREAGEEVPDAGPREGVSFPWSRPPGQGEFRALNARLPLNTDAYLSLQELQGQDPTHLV
T1 sequence 3: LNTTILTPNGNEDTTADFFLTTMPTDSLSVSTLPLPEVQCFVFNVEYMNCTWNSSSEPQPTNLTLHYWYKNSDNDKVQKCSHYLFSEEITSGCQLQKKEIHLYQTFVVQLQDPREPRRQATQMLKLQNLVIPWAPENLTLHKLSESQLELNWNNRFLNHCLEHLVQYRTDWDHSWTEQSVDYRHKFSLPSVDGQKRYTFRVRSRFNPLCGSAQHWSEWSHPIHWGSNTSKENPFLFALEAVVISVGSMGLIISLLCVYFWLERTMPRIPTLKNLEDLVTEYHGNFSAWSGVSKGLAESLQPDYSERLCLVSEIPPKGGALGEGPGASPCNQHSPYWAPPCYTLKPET

B1: TEH (ligand)
cytokine: APTSSSTKKTQLQLEHLTLDLEMILNGINNYKNPKLTRMLTFKFYMPKKATELKHLQCLEEELKPLEEVLNLAQSKNFHLRPRDLISNINVIVLELKGSETTFMCEYADETATIVEFLNRWITFCHSIISTLT
B2: RFH (ligand)
cytokine: APTSSSTKKTQLQLEHLRLDLFMILNGINNYKNPKLTRMLTFKFYMPKKATELKHLQCLEEELKPLEEVLNLAQSKNFHLRPRDLISNINVIVLELKGSETTFMCEYADETATIVEFLNRWITFCHSIISTLT
B3: RWH (ligand)
cytokine: APTSSSTKKTQLQLEHLRLDLWMILNGINNYKNPKLTRMLTFKFYMPKKATELKHLQCLEEELKPLEEVLNLAQSKNFHLRPRDLISNINVIVLELKGSETTFMCEYADETATIVEFLNRWITFCHSIISTLT
B4: RVH (ligand)
cytokine: APTSSSTKKTQLQLEHLRLDLVMILNGINNYKNPKLTRMLTFKFYMPKKATELKHLQCLEEELKPLEEVLNLAQSKNFHLRPRDLISNINVIVLELKGSETTFMCEYADETATIVEFLNRWITFCHSIISTLT
B5: RGH (ligand)
cytokine: APTSSSTKKTQLQLEHLRLDLGMILNGINNYKNPKLTRMLTFKFYMPKKATELKHLQCLEEELKPLEEVLNLAQSKNFHLRPRDLISNINVIVLELKGSETTFMCEYADETATIVEFLNRWITFCHSIISTLT
B6: RHH (ligand)
cytokine: APTSSSTKKTQLQLEHLRLDLHMILNGINNYKNPKLTRMLTFKFYMPKKATELKHLQCLEEELKPLEEVLNLAQSKNFHLRPRDLISNINVIVLELKGSETTFMCEYADETATIVEFLNRWITFCHSIISTLT
B7: RYH (ligand)
cytokine: APTSSSTKKTQLQLEHLRLDLYMILNGINNYKNPKLTRMLTFKFYMPKKATELKHLQCLEEELKPLEEVLNLAQSKNFHLRPRDLISNINVIVLELKGSETTFMCEYADETATIVEFLNRWITFCHSIISTLT
B8: RIH (ligand)
cytokine: APTSSSTKKTQLQLEHLRLDLIMILNGINNYKNPKLTRMLTFKFYMPKKATELKHLQCLEEELKPLEEVLNLAQSKNFHLRPRDLISNINVIVLELKGSETTFMCEYADETATIVEFLNRWITFCHSIISTLT
B9: RMH (ligand)
cytokine: APTSSSTKKTQLQLEHLRLDLMMILNGINNYKNPKLTRMLTFKFYMPKKATELKHLQCLEEELKPLEEVLNLAQSKNFHLRPRDLISNINVIVLELKGSETTFMCEYADETATIVEFLNRWITFCHSIISTLT
B10: RAH (ligand)
cytokine: APTSSSTKKTQLQLEHLRLDLAMILNGINNYKNPKLTRMLTFKFYMPKKATELKHLQCLEEELKPLEEVLNLAQSKNFHLRPRDLISNINVIVLELKGSETTFMCEYADETATIVEFLNRWITFCHSIISTLT
B11: RLH (ligand)
cytokine: APTSSSTKKTQLQLEHLRLDLLMILNGINNYKNPKLTRMLTFKFYMPKKATELKHLQCLEEELKPLEEVLNLAQSKNFHLRPRDLISNINVIVLELKGSETTFMCEYADETATIVEFLNRWITFCHSIISTLT
B12: RKH (ligand)
cytokine: APTSSSTKKTQLQLEHLRLDLKMILNGINNYKNPKLTRMLTFKFYMPKKATELKHLQCLEEELKPLEEVLNLAQSKNFHLRPRDLISNINVIVLELKGSETTFMCEYADETATIVEFLNRWITFCHSIISTLT
B13: RSH (ligand)
cytokine: APTSSSTKKTQLQLEHLRLDLSMILNGINNYKNPKLTRMLTFKFYMPKKATELKHLQCLEEELKPLEEVLNLAQSKNFHLRPRDLISNINVIVLELKGSETTFMCEYADETATIVEFLNRWITFCHSIISTLT

These binders were tested against T1, human high affinity trimeric IL-2 … (assay: cell-based or functional assay).

First: B1
Second: B2
The “pSTAT5 ratio YT CD25/YT, dilution factor 2, lower table” value of the first is lower: 0.5 for the first, 0.7 for the second.

First: B3
Second: B4
The “pSTAT5 ratio YT CD25/YT, dilution factor 2, lower table” value of the first is lower: 0.8 for the first, 0.9 for the second.

Going from B5 to B6, the “pSTAT5 ratio YT CD25/YT, dilution factor 2, lower table” value rises from 0.6 to 2.

First: B7
Second: B8
The “pSTAT5 ratio YT CD25/YT, dilution factor 2, lower table” value of the first is lower: 0.9 for the first, 1.1 for the second.

B9 and B10 are the same in “pSTAT5 ratio YT CD25/YT, dilution factor 2, lower table” value: 0.6 for the first, 0.6 for the second.

Compared with B11, B12 is higher in “pSTAT5 ratio YT CD25/YT, dilution factor 2, lower table” value: 0.8 for the first, 1 for the second.

In the case of B13, the “pSTAT5 ratio YT CD25/YT, dilution factor 2, lower table” value is reported as 1.

Compared with B1, B2 is higher in “pSTAT5 ratio YT CD25/YT, dilution factor 4, lower table” value: 0.6 for the first, 0.8 for the second.

First: B3
Second: B4
The “pSTAT5 ratio YT CD25/YT, dilution factor 4, lower table” value of the first is lower: 0.8 for the first, 0.9 for the second.

Compared with B5, B6 is higher in “pSTAT5 ratio YT CD25/YT, dilution factor 4, lower table” value: 0.8 for the first, 2 for the second.

Compared with B7, B8 is lower in “pSTAT5 ratio YT CD25/YT, dilution factor 4, lower table” value: 2.2 for the first, 1.5 for the second.

First: B9
Second: B10
The “pSTAT5 ratio YT CD25/YT, dilution factor 4, lower table” value of the first is higher: 0.8 for the first, 0.7 for the second.

B11 and B12 are the same in “pSTAT5 ratio YT CD25/YT, dilution factor 4, lower table” value: 1.1 for the first, 1.1 for the second.

With B13 the “pSTAT5 ratio YT CD25/YT, dilution factor 4, lower table” value was 0.9.

First: B1
Second: B2
The “pSTAT5 ratio YT CD25/YT, dilution factor 8, lower table” value of the first is lower: 0.9 for the first, 1.3 for the second.

Going from B3 to B4, the “pSTAT5 ratio YT CD25/YT, dilution factor 8, lower table” value rises from 1.2 to 1.4.

Going from B5 to B6, the “pSTAT5 ratio YT CD25/YT, dilution factor 8, lower table” value rises from 1.1 to 2.7.

Going from B7 to B8, the “pSTAT5 ratio YT CD25/YT, dilution factor 8, lower table” value falls from 3.4 to 2.4.

Compared with B9, B10 is lower in “pSTAT5 ratio YT CD25/YT, dilution factor 8, lower table” value: 1.1 for the first, 0.8 for the second.

First: B11
Second: B12
The “pSTAT5 ratio YT CD25/YT, dilution factor 8, lower table” value of the first is lower: 1.5 for the first, 1.8 for the second.

With B13 the “pSTAT5 ratio YT CD25/YT, dilution factor 8, lower table” value was 1.1.

Going from B1 to B2, the “pSTAT5 ratio YT CD25/YT, dilution factor 16, lower table” value rises from 1.3 to 2.5.

First: B3
Second: B4
The “pSTAT5 ratio YT CD25/YT, dilution factor 16, lower table” value of the first is higher: 2 for the first, 1.9 for the second.

Compared with B5, B6 is higher in “pSTAT5 ratio YT CD25/YT, dilution factor 16, lower table” value: 2.1 for the first, 3.9 for the second.

Going from B7 to B8, the “pSTAT5 ratio YT CD25/YT, dilution factor 16, lower table” value falls from 5.5 to 3.8.

First: B9
Second: B10
The “pSTAT5 ratio YT CD25/YT, dilution factor 16, lower table” value of the first is higher: 1.4 for the first, 1.2 for the second.

Going from B11 to B12, the “pSTAT5 ratio YT CD25/YT, dilution factor 16, lower table” value rises from 2.5 to 3.

With B13 the “pSTAT5 ratio YT CD25/YT, dilution factor 16, lower table” value was 1.8.

Going from B1 to B2, the “pSTAT5 ratio YT CD25/YT, dilution factor 32, lower table” value rises from 1.9 to 4.3.

Compared with B3, B4 is higher in “pSTAT5 ratio YT CD25/YT, dilution factor 32, lower table” value: 3 for the first, 3.3 for the second.

First: B5
Second: B6
The “pSTAT5 ratio YT CD25/YT, dilution factor 32, lower table” value of the first is lower: 3.4 for the first, 6.3 for the second.

First: B7
Second: B8
The “pSTAT5 ratio YT CD25/YT, dilution factor 32, lower table” value of the first is higher: 8.7 for the first, 6 for the second.

First: B9
Second: B10
The “pSTAT5 ratio YT CD25/YT, dilution factor 32, lower table” value of the first is higher: 2.3 for the first, 1.4 for the second.

Compared with B11, B12 is higher in “pSTAT5 ratio YT CD25/YT, dilution factor 32, lower table” value: 3.3 for the first, 5.5 for the second.

With B13 the “pSTAT5 ratio YT CD25/YT, dilution factor 32, lower table” value was 2.8.

First: B1
Second: B2
The “pSTAT5 ratio YT CD25/YT, dilution factor 64, lower table” value of the first is lower: 3.3 for the first, 7.4 for the second.

Compared with B3, B4 is higher in “pSTAT5 ratio YT CD25/YT, dilution factor 64, lower table” value: 5 for the first, 5.3 for the second.

Going from B5 to B6, the “pSTAT5 ratio YT CD25/YT, dilution factor 64, lower table” value rises from 5.5 to 10.6.

First: B7
Second: B8
The “pSTAT5 ratio YT CD25/YT, dilution factor 64, lower table” value of the first is higher: 11.8 for the first, 8.4 for the second.

Compared with B9, B10 is lower in “pSTAT5 ratio YT CD25/YT, dilution factor 64, lower table” value: 3.9 for the first, 2.3 for the second.

First: B11
Second: B12
The “pSTAT5 ratio YT CD25/YT, dilution factor 64, lower table” value of the first is lower: 4.9 for the first, 8.1 for the second.

For B13, the “pSTAT5 ratio YT CD25/YT, dilution factor 64, lower table” value was 5.

Compared with B1, B2 is higher in “pSTAT5 ratio YT CD25/YT, dilution factor 128, lower table” value: 5.2 for the first, 10.6 for the second.

Compared with B3, B4 is lower in “pSTAT5 ratio YT CD25/YT, dilution factor 128, lower table” value: 9.1 for the first, 8 for the second.

Compared with B5, B6 is higher in “pSTAT5 ratio YT CD25/YT, dilution factor 128, lower table” value: 6.9 for the first, 16 for the second.

First: B7
Second: B8
The “pSTAT5 ratio YT CD25/YT, dilution factor 128, lower table” value of the first is lower: 10.5 for the first, 11.5 for the second.

Compared with B9, B10 is lower in “pSTAT5 ratio YT CD25/YT, dilution factor 128, lower table” value: 5.1 for the first, 3.7 for the second.

Going from B11 to B12, the “pSTAT5 ratio YT CD25/YT, dilution factor 128, lower table” value rises from 6.7 to 11.

With B13 the “pSTAT5 ratio YT CD25/YT, dilution factor 128, lower table” value was 6.8.
